B1: VAR2CSA ID1-DBL2Xa, 3D7 (Baculo) (other)
chain: LSFILNSSDANNPSEKIQKNNDEVCNCNESGIASVEQEQISDPSSNKTCITHSSIKANKKKVCKHVKLGVRENDKDLRVCVIEHTSLSGVENCCCQDFLRILQENCSDNKSGSSSNGSCNNKNQEACEKNLEKVLASLTNCYKCDKCKSEQSKKNNKNWIWKKSSGKEGGLQKEYANTIGLPPRTQSLCLVVCLDEKGKKTQELKNIRTNSELLKEWIIAAFHEGKNLKPSHEKKNDDNGKKLCKALEYSFADYGDLIKGTSIWDNEYTKDLELNLQKIFGKLFRKYIKKNNTAEQDTSYSSLDELRESWWNTNKKYIWLAMKHGAGMNSTTCCGDGSVTGSGSSCDDIPTIDLIPQYLRFLQEWVEHFCKQRQEKVKPVIENCKSCKESGGTCNGECKTECKNKCEVYKKFIEDCKGGDGTAGSSWVKRWDQIYKRYSKYIEDAKRNRKAGTKNCGPSSTTNAA
notes: not shown: C-terminal V5 and His tag of the modified pAcGP67-A vector
B2: VAR2CSA ID1-DBL2Xb, 3D7 (Baculo) (other)
chain: NYIKGDPYFAEYATKLSFILNSSDANNPSEKIQKNNDEVCNCNESGIASVEQEQISDPSSNKTCITHSSIKANKKKVCKHVKLGVRENDKDLRVCVIEHTSLSGVENCCCQDFLRILQENCSDNKSGSSSNGSCNNKNQEACEKNLEKVLASLTNCYKCDKCKSEQSKKNNKNWIWKKSSGKEGGLQKEYANTIGLPPRTQSLCLVVCLDEKGKKTQELKNIRTNSELLKEWIIAAFHEGKNLKPSHEKKNDDNGKKLCKALEYSFADYGDLIKGTSIWDNEYTKDLELNLQKIFGKLFRKYIKKNNTAEQDTSYSSLDELRESWWNTNKKYIWLAMKHGAGMNSTTCCGDGSVTGSGSSCDDIPTIDLIPQYLRFLQEWVEHFCKQRQEKVKPVIENCKSCKESGGTCNGECKTECKNKCEVYKKFIEDCKGGDGTAGSSWVKRWDQIYKRYSKYIEDAKRNRKAGTKNCGPSSTTNAAENKCVQSDIDSFFKHLIDIGLTTPSSYLSIVLDDNICGADKAPWTTYTTYTTTEKCNKETDKSKLQQCNTAVVVNVPSPLGNTPHGYKY
notes: The 3D7 forward primer begins at LSFILN; not shown: C-terminal V5 and His tag of the modified pAcGP67-A vector
B3: VAR2CSA ID1-ID2a, 3D7 (Baculo) (other)
chain: NYIKGDPYFAEYATKLSFILNSSDANNPSEKIQKNNDEVCNCNESGIASVEQEQISDPSSNKTCITHSSIKANKKKVCKHVKLGVRENDKDLRVCVIEHTSLSGVENCCCQDFLRILQENCSDNKSGSSSNGSCNNKNQEACEKNLEKVLASLTNCYKCDKCKSEQSKKNNKNWIWKKSSGKEGGLQKEYANTIGLPPRTQSLCLVVCLDEKGKKTQELKNIRTNSELLKEWIIAAFHEGKNLKPSHEKKNDDNGKKLCKALEYSFADYGDLIKGTSIWDNEYTKDLELNLQKIFGKLFRKYIKKNNTAEQDTSYSSLDELRESWWNTNKKYIWLAMKHGAGMNSTTCCGDGSVTGSGSSCDDIPTIDLIPQYLRFLQEWVEHFCKQRQEKVKPVIENCKSCKESGGTCNGECKTECKNKCEVYKKFIEDCKGGDGTAGSSWVKRWDQIYKRYSKYIEDAKRNRKAGTKNCGPSSTTNAAENKCVQSDIDSFFKHLIDIGLTTPSSYLSIVLDDNICGADKAPWTTYTTYTTTEKCNKETDKSKLQQCNTAVVVNVPSPLGNTPHGYKYACQCKIPTNEETCDDRKEYMNQWSCGSARTMKRGYKNDNYELCKYNGVDVKPTTVRSNSSKLD
notes: as for B1

Legend:
[1] = target: CSPG (bovine) (D8428, Sigma) (bovine) (UniProt P21793); assay: quartz crystal microbalance (Attana A100), CSPG coated; FCR3 Baculo
Chain of CSPG (bovine) (D8428, Sigma) (bovine) (P21793 31-360): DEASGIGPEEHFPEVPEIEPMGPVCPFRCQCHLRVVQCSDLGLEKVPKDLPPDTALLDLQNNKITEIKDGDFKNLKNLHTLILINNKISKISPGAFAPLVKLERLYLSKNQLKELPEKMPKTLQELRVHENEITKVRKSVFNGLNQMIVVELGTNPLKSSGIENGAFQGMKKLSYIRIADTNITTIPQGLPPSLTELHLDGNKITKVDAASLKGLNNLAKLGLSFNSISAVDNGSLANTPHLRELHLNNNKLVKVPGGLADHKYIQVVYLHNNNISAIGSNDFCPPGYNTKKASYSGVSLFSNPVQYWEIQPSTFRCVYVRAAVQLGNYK

[2] = target: CSPG (bovine) (D8428, Sigma) (bovine) (UniProt P21793); assay: quartz crystal microbalance (Attana A100), CSPG coated; 3D7 Baculo
[3] = target: T1, CSPG (bovine) (D8428, Sigma) (bovine, UniProt P21793 31-360, carries chondroitin sulfate A (CSA) glycosaminoglycan chain(s); attachment site not stated); assay: quartz crystal microbalance (Attana A100), CSPG coated
T1 construct: Commercial proteoglycan coated on the chip or plate; also called chondroitin sulfate proteoglycan; CSA proteoglycan (CSPG)
T1 sequence (P21793 31-360): as above

[4] = target: T1, CSPG (bovine) (D8428, Sigma); assay: quartz crystal microbalance (Attana A100), CSPG coated; 3D7 Baculo
Protocol: All buffers and reagents were filtered to 0.2 μm. The ligand was CSPG (Bovine) (D8428, Sigma) or HSPG (H4777, Sigma), coated at a concentration of 100 μg/ml. Coating was done in steady state by adding ligand solution and incubation 30 minutes at room temperature. This was followed by blocking the plate with PBS containing 0.1% Ig-free BSA (BSA-50, Rockland), 30 minutes at room temperature. The Attana A100 was washed with 1% SDS prior to every experiment, using the manufacturers predefined daily wash program. Following the wash, the running buffer was switched to PBS at a flow rate of 25 μL/min, at 25° C., and the machine was allowed to stabilize at a maximum change in frequency of 0.5 Hz/min. […] Prior to sample injection PBS was injected as a blank. Analyte was injected in a 1:3 dilution series (0.25 μg/ml-60 μg/ml) starting with the lowest concentration. Association time was set to 84 seconds and disassociation time to 5 minutes. […] The data collected was processed in the Attester Evaluation software (Attana AB). Curves were fitted in a simple 1:1 model. kₒₙ and koff were determined by curve fitting and KD was calculated based KD=koff/kₒₙ.

| Molecule | Kd [1] [nM] | other results |
| --- | --- | --- |
| VAR2CSA DBL1-ID2b, FCR3 (Baculo) | 1.5 |  |
| VAR2CSA DBL2X-DBL4ε, FCR3 (Baculo) | 2.4 |  |
| VAR2CSA FV2, 3D7 (Baculo) |  | Kd [2]: 8.2 nM |
| VAR2CSA FV2, FCR3 (Baculo) | 5.2 |  |
| VAR2CSA ID1-DBL3ε, FCR3 (Baculo) | 0.3 |  |
| VAR2CSA ID1-DBL4ε, FCR3 (Baculo) | 8.6 |  |
| B1 |  | binding result [3]: no binding (tested: 0.25 µg/ml-60 µg/ml) |
| B2 |  | Kd [4]: 21.8 nM |
| B3 |  | Kd [4]: 5.7 nM |

Source: US20180298098A1 (VAR2 PHARMACEUTICAL, published 2018)
